Results from patent US20250288643A1.
Substitutions are numbered along the chain they refer to.

B1: 4RP13-4-5C (designed binder)
hSIRPα IgV domain mutant: EEELQVIQPDKSVSVAAGESAILNCTVTSLIPVGPIQWFRGAGPARELIYNQKHQTFPRVTTVSEQTKRENRDFSISISNITPADAGTYYCVKFRKGSPDTEFKSGAGTELSVRAKPS
B2: 4RP13-3-10B (designed binder)
hSIRPα IgV domain mutant: B1 hSIRPα IgV domain mutant with N24H, I31Y, H54G, Q55R, T56R, Q66S, E70A, R72M
B3: 4RP13-3-7B (designed binder)
hSIRPα IgV domain mutant: B1 hSIRPα IgV domain mutant with N24T, I31Y, H54R, Q66S, E70F, R72M
B4: 4RP13-5-6G (designed binder)
hSIRPα IgV domain mutant: B1 hSIRPα IgV domain mutant with N24R, I31T, H54A, Q55K, T56Q, Q66S, R72M, D73I
B5: 2R-1-4B (designed binder)
hSIRPα IgV domain mutant: B1 hSIRPα IgV domain mutant with N24H, I31A, H54L, Q55D, T56S, Q66S, N71S, R72M
B6: 2R-1-10B (designed binder)
hSIRPα IgV domain mutant: B1 hSIRPα IgV domain mutant with N24H, H54N, Q55L, T56I, Q66S, T67G, R72M
B7: 2R-1-7B (designed binder)
hSIRPα IgV domain mutant: B1 hSIRPα IgV domain mutant with N24H, T26I, H54I, Q55L, Q66S, R72Y
B8: 2RP-1-3E (designed binder)
hSIRPα IgV domain mutant: B1 hSIRPα IgV domain mutant with N24T, I31W, H54G, T56N, Q66S, E70F, R72M
B9: 4RP13-3-4D (designed binder)
hSIRPα IgV domain mutant: B1 hSIRPα IgV domain mutant with N24H, I31L, H54S, Q55K, T56V, Q66S, E70R, R72M

Each binder was assayed against T1, mouse CD47 (mouse) (UniProt Q61735) (assay: ELISA, coated mouse CD47 ECD Fc, supernatant, anti-c-Myc HRP).
T1 sequence (looked up): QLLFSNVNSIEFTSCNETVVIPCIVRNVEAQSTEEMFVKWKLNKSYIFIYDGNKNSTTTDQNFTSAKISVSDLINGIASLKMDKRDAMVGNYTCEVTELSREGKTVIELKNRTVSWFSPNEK

Binder	mCD47 binding (OD)
B1	0.116
B2	0.17
B3	0.152
B4	0.149
B5	0.082
B6	0.086
B7	0.087
B8	0.113
B9	0.173
